Measurements reported in patent US20250011363A1, “OPTIMIZED SHORTENED PEPTIDE THAT BINDS TO ACETYLCHOLINE RECEPTOR, AND USE THEREOF” (SKINMED CO., LTD., priority 2021, published 2025).

Target: acetylcholine receptor
Assay: SPR, peptide at 10 µM on acetylcholine receptor

Binding affinity (RU)	Binder
84 RU	KQLCR [5mer-375]
87 RU	KGQRR [5mer-381]
62 RU	RLRQR [5mer-382]
87 RU	RQITK [5mer-74]
53 RU	KVVCR [5mer-396]
54 RU	RSVCR [5mer-372]
66 RU	KRRRK [5mer-394]
55 RU	RQIQK [5mer-91]
79 RU	KVICK [5mer-78]
52 RU	KRQLR [5mer-97]
87 RU	KVFTK [5mer-373]
57 RU	KWRRR [5mer-389]
68 RU	KLQSK [5mer-71]
69 RU	RLLQR [5mer-70]
51 RU	RGVYR [5mer-385]
64 RU	KRFCR [5mer-390]
79 RU	KSRLR [5mer-379]
50 RU	RSRSR [5mer-69]
71 RU	RSVQK [5mer-367]
77 RU	KRITK [5mer-89]
79 RU	RGIYR [5mer-81]

Binding affinity (RU)	Binder
67 RU	KWRRK [5mer-370]
72 RU	KVFRR [5mer-391]
75 RU	KLFTR [5mer-374]
55 RU	RRLCK [5mer-86]
78 RU	RSFLK [5mer-386]
86 RU	RQLYR [5mer-67]
74 RU	KWRQK [5mer-77]
52 RU	RRITK [5mer-397]
84 RU	RGFTR [5mer-369]
52 RU	RRILR [5mer-387]
67 RU	RVVRR [5mer-84]
73 RU	RRVQK [5mer-88]
50 RU	RWVCK [5mer-395]
80 RU	RGYRR [5mer-76]
83 RU	KSRTR [5mer-80]
82 RU	RGFYK [5mer-68]
65 RU	RRLSK [5mer-378]
75 RU	KSLQR [5mer-393]
56 RU	RWQRK [5mer-383]
84 RU	RQRYK [5mer-82]
86 RU	RGISK [5mer-371]

Binding affinity (RU)	Binder
62 RU	RVRLK [5mer-92]
68 RU	RGRRK [5mer-95]
82 RU	KRYLK [5mer-380]
63 RU	KVQTK [5mer-75]
67 RU	KGFYK [5mer-377]
75 RU	KSLRK [5mer-384]
64 RU	KGFSR [5mer-83]
78 RU	KLFCK [5mer-388]
65 RU	KGQLR [5mer-376]
50 RU	RWFQR [5mer-94]
74 RU	KGVLK [5mer-85]
79 RU	KWVYR [5mer-93]
87 RU	RSRLR [5mer-392]
55 RU	RQITR [5mer-87]
86 RU	RWYTK [5mer-90]
50 RU	KRIRR [5mer-368]
71 RU	KGQCR [5mer-398]
82 RU	RWFLR [5mer-79]
50 RU	KLYRR [5mer-72]
68 RU	KWYCK [5mer-98]
55 RU	RVLYR [5mer-96]

Target: acetylcholine receptor
Assay: SPR, AchR immobilized on CM5 chip, peptide at 10 µM

Binding affinity (RU)	Binder
80 RU	KVIRK [5mer-100]
78 RU	KLLQR [5mer-106]
52 RU	RGVLR [5mer-401]
86 RU	RLRYR [5mer-402]
82 RU	RGFSK [5mer-102]
64 RU	RRLYK [5mer-403]
68 RU	KSYTK [5mer-405]
55 RU	RQQYR [5mer-101]
74 RU	RVVLK [5mer-104]
83 RU	KGYLK [5mer-404]
62 RU	RWFLK [5mer-103]
58 RU	RWICK [5mer-99]
84 RU	KVYLR [5mer-406]
62 RU	KWIQR [5mer-399]
70 RU	RWRCK [5mer-400]
50 RU	RGQQR [5mer-105]
